What was measured:
[1] = system: α-L-rhamnosidase from A. terreus; assay: Influence of rhamnose excess on rhamnosidase activity (product inhibition); assay type: biochemical, Aspergillus terreus; details: pNPR substrate, rhamnose solutions 0.6-3 mM added 1:1:1, pH 6.5, 40° C., 30 minutes
Method: The analysis was performed only for α-l-rhamnosidase from A. terreus. The influence of rhamnose excess on enzyme activity was investigated using the same colorimetric method as described above (See FIG. 1). The pNPR substrate was first dissolved in DMSO, with concentration adjusted to 300 μM in 100 mM sodium phosphate buffer pH 6.5. Enzymes were diluted to concentration of 30 μg/mL in 100 mM sodium phosphate buffer pH 6.5. Following sequence of rhamnose concentrations were prepared in 100 mM sodium phosphate buffer pH 6.5: 0.6 mM, 1.2 mM, 1.8 mM, 2.4 mM, 3 mM. 240 μL of the total reaction mixture was prepared by adding the substrate solution, the enzyme solution and the rhamnose solution in 1:1:1 ratio. The activity assay was performed on 96-well Microtiter UV plate by Thermo Scientific (Waltham, MA USA). All reactions were done at pH 6.5 and in temperature 40° C. The changes in absorbance were monitored at 405 nm for 30 minutes in Microplate reader Varioskan® Flash. The relative activity of α-L-rhamnosidase from A. terreus was measured using pNPR substrate in the excess of rhamnose in the reaction mix. The analysis was performed in order to study product inhibition phenomenon.

[2] = Rhamnosidase activity assessment, colorimetric method using pNPR; assay type: biochemical; details: 40° C.
Method: α-l-Rhamnosidase activity of enzyme from A. terreus and enzyme from A. niger was determined by a colorimetric method using p-nitrophenyl-α-l-rhamnopyranoside (pNPR) (See the chemical formula equation shown in FIG. 1). The pNPR substrate was first dissolved in DMSO, with concentration adjusted to 200 μM in 100 mM sodium phosphate buffer pH 6.5. Enzymes were diluted to concentration of 20 μg/mL in 100 mM sodium phosphate buffer pH 6.5. The reaction was prepared by mixing the substrate solution with enzyme solution in 1:1 ratio. The activity assay was performed on 96-well Microtiter UV plate by Thermo Scientific (Waltham, MA USA). All reactions were done at pH 6.5 and in temperature 40° C. The changes in absorbance were monitored at 405 nm for 60 minutes in Microplate reader Varioskan® Flash. The relative activity of α-L-rhamnosidase from A. terreus and α-L-rhamnosidase from A. niger were measured against the p-NPR. The reaction was monitored in time at 40° C. and pH 6.5 (See FIG. 3). The enzymes caused release of the product—4-nitrophenol. […] The 70% conversion of R2 is plenty sufficient for test purposes, therefore the enzyme with faster kinetics was used for further analysis.

[3] = β-D-glucosidase activity assessment, colorimetric method using pNPG; assay type: biochemical
Method: β-D-glucosidase activity of enzyme from A. terreus was determined by a colorimetric method using p-nitrophenyl-β-glucopyranoside (pNPG). The pNPG substrate was first dissolved in DMSO, with concentration adjusted to 200 μM in 100 mM sodium phosphate buffer pH 6.5. To analyse the substrate preference, the pNPG was mixed with pNPR at 1:1 ratio, then dissolved in DMSO, and concentration of such mixture was adjusted to 200 μM in 100 mM sodium phosphate buffer pH 6.5. As a control, pNPR, prepared as above, at concentration of 200 μM was used. Enzyme was diluted to concentration of 20 μg/mL in 100 mM sodium phosphate buffer pH 6.5. The reactions were prepared by mixing the substrate solution with enzyme solution in 1:1 ratio. The activity assay was performed on 96-well Microtiter UV plate by Thermo Scientific (Waltham, MA USA). […] The changes in relative absorbance values were monitored at 405 nm for about 30 minutes in Microplate reader Varioskan® Flash.
pNPG was used as a substrate to monitor β-D-glucosidase activity of enzyme from A. terreus, the pNPR was used as a substrate showing α-l-rhamnopyranoside activity, and mixture of both substrates was used to determine substrate preference (see FIG. 5). […] The absorbance signal was not detected for the reaction with pNPG, and the reaction kinetics observed for pNPR substrate was not impacted by presence of pNPG in the reaction with mixed substrates.

Row | Molecule | effect of added rhamnose on substrate conversion rate [1] | converted substrate at plateau ([2]; pNPR 100 μM, pH 6.5) [%] | time to reach about 70% of converted substrate ([2]; pNPR 100 μM, pH 6.5) [min] | kinetic behaviour compared between the two enzymes ([2]; pNPR, pH 6.5) | substrate preference, pNPR versus pNPG and mixed substrates ([3]; pNPG mixed with pNPR 1:1, pH 6.5, 40° C.) | absorbance signal at 405 nm with pNPG (β-D-glucosidase activity) ([3]; pNPG, pH 6.5, 40° C., about 30 minutes) | substrate converted more than A. terreus enzyme after 60 min ([2]; pNPR 100 μM, pH 6.5, 60 min) [%]
1 | C[C@H](O)[C@H](O)[C@@H](O)[C@@H](O)C=O [rhamnose] | substrate conversion rate decreased | – | – | – | – | – | –
2 | enzyme from A. terreus: recombinant α-L-rhamnosidase from Aspergillus terreus, prepared internally, secreted in P. pastoris; SEQ ID. 1 (protein, listed as Aspergillus terreus) MALSISQVAFEHHRTALGIGETQPRVSWRFDGNVSDWEQRAYEIEVKRAGHDADVFRSESSDSVLVPWPSSPLQSGEEATVRVRSFGSDGQHDTPWSDAVTVEPGLLTPDDWHDAVVIASDRPTEVDATHRPIQFRKEFSVDDSYVSARLYITALGLYEARINDQRVGDHVMAPGWQSYQYRHEYNTYDVTDLLKQGPNAIGVTVGEGWYSGRIGYDGGKRNIYGDTLGLLSLLVVTKSDGSKLYIPSDSSWKSSTGPIISSEIYDGEEYDSRLEQKGWSQVGFNSTGWLGTHELSFPKERLASPDGPPVRRVAEHKLANVFSSASGKTVLDFGQNLVGWLRIRVKGPKGQTIRFVHTEVMENGEVATRPLRQAKATDHFTLSGEGVQEWEPSFTYHGFRYVQVDGWPADTPLDENSVTAIVVHSDMERTGYFECSNPLISKLHENILWSMRGNFFSIPTDCPQRDERLGWTGDIHAFSRTANFIYDTAGFLRAWLKDARSEQLNHSYSLPYVIPNIHGNGETPTSIWGDAIVGVPWQLYESFGDKVMLEEQYGGAKDWVDKGIVRNDVGLWDRSTFQWADWLDPKAPADDPGDATTNKYLVSDAYLLHSTDMLANISTSLSKGEEASNYTEWHAKLTKEFQKAWITSNGTMANETQTGLALPLYFDLFPSAEQAQSAAKRLVNIIKQNDYKVGTGFAGTHLLGHTLSKYGESDAFYSMLRQTEVPSWLYQVVMNGTTTWERWDSMLPNGSINPGQMTSFNHYAVGSVGSWLHEVIGGLSPAEPGWRRINIEVVPGGDLQQASTKFLTPYGMASTKWWLDGQDQSCGGFDFHLVAEVPPNTRATVVLPGKGGEKVDVGSGVHEYHVRCVKL | – | 70 | 10 | acting faster | recognized only pNPR as a substrate | not detected | –
3 | enzyme from A. niger: α-L-rhamnosidase from Aspergillus niger obtained from Megazyme LTD; SEQ ID. 2 (protein, Aspergillus niger) MAPIALKILLFTSLIVPSISLSDQARNGHARTICEVKPGGSSEIDDVPAIVDALTTCGSGGRVIFSNNTYHINSVMNTTWLDDVEIDLQGTLLWSTNISYWLNHSLPVGYQNQSTAWILGGKDIVFEGHGYGTFNGSGQTWYRYVGSTSNYPRRPNQLTVSGAMGAVFKGLRFVQSQMWTMSIIHTSNSWFDSIYVNNLYDDGGSAQNTDGANTIYSKNITLTNWEVVNGDDSISTKANSTDITIANCTFTSGLGIAIGSIGQYNGAFETVERLKISNITYEKTTHAVYFKTWTGDQVGYPPNGGGGGLGYASDIVATNLKTNNLKGAPFTISQCTTFSGASGNCTNSKFQIRDLVFTDISGTTDSSDVASFQCSAVAPCEDITIENVSLRIAGNTTHAEEYLCGNVDGTVGFNCTGDVCVGSSATGGC | – | – | 30 | – | – | – | 10

— patent US12371726B2, “Process to produce mono-rhamnolipids” (Conopco, Inc., priority 2021, dated 2025)
